According to PMC12540712:

Target: And-1 HMG domain, 984-1129 (UniProt O75717)
Assay: GST-HMG pull-down of SepB, immunoblot
Conditions: reference: wild-type SepB; sites T826

- binding against the reference: stronger
Substance: And-1 SepB domain, 330-984 (from UniProt O75717) T826A SepB
